Positions count from the first letter of the chain named.
T1: mouse TREML1 ECD (mouse, UniProt Q8K558 21-175)
T1 construct: also called murine TREML1 ECD
T1 sequence: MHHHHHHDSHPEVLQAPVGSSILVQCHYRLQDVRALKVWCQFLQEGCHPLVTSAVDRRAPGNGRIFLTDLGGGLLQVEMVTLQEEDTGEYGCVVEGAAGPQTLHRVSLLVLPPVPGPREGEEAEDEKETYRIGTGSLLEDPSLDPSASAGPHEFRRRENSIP

T2: human TREML1 ECD (human, UniProt Q86YW5 16-162)
T2 construct: Any tags are not described; also called soluble TREML1; soluble TLT1
T2 sequence: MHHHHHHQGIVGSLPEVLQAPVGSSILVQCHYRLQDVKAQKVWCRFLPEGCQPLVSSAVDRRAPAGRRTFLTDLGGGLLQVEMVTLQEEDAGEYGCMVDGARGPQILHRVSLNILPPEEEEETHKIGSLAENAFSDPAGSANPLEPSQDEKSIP

B1: Anti-TREML1 Antibody Clone 18D8 (antibody, V domains shown)
VH: EVQVQQSGPELVNPGASVRLSCKASGYIFTDYVIHWVRQKPGQGLEWIGYMNPYTDGPKYSDKIKDKAILTSDRSSNTVYMELRSLTSEDSAVYFCARDFNYYVGAMDFWGQGTSVTVSS
VL: DVVLTQTPLSLPVSLGDQASVSCRSSQSLLHSNGNTYLHWYLQKPGQSPKLLIYKVSNRFSGVPDRFTGSGSGTDFTLKISRVEAEDLGVYFCSQSTHIWTFGGGTKLEIK
notes: It was detected with anti-mouse IgG
B2: Anti-TREML1 Antibody Clone 27D3 (antibody, V domains shown)
VH: DVQLQQSGPELVKPGASVKMSCKASGYTFTEYVIHWVKQRPGQGLEWFGYFNPYTGGSKFNEKFKDKATLTSDRSSNTVYMELYSLTSEDSAVYYCARDFNYYVGAMDYWGQGTSVTVSS
VL: B1 VL with V3A, V21I, L30V, P45S, T68S, G73V, D75E, T97S, K107R
notes: as for B1
B3: Anti-TREML1 Antibody Clone 23F10 (antibody, V domains shown)
VH: EVQLQQSGPELVRPGASVKVSCKASGYIFTDYVIHWVKQKPGQGLEWFGYINPYTGGPKYSETARGKATLTSDSSSNTAYMVLTSLTSDDSAVYYCTRDFNYYVGAMDFWGQGTSVTVSS
VL: AAVLTQTPLSLPVSLGDQASISCRSTQSLVHSNGNTYVHWYLQKAGQSPKLLIYKVSNRFSGVPDRFSGSGSGTDFTLKISRVEAEDLGVYFCSQSTYVWTFGGGTKLEIE
notes: as for B1
B4: Anti-TREML1 Antibody Clone 29F4 (antibody, V domains shown)
VH: B3 VH with R65K, D89E
VL: B3 VL with A1G, R24K, S68I
notes: as for B1
B5: Anti-TREML1 Antibody Clone 28A9 (antibody, V domains shown)
VH: EVQLQQSGPELVKPGASVKMSCKASGYTFTNYVMHWVKQKPGQGLEWIGYFNPYNGHAKYSEKFTGKATLTSDRSSSTAYMELNSLTSEDSAVYYCTRDFNYYVGAMDYWGQGTSVTVSS
VL: DVVMTQSPLSLPVNLGDHASISCRSSQSLIHSNGNTYLHWYLQKPGQSPKLLVYQVSKRFSGVPDRFSGSGSGTDFTLKISRVEAEDLGVYFCSQSTHIWTFGGGTTLEIK
notes: as for B1
B6: Anti-TREML1 Antibody Clone 26A6 (antibody, V domains shown)
VH: EVKLVESGGGLVQPGGSRKLSCAASGFTFSDYGMAWVRQAPGKGPEWIAFISNLAYRIYYADTVTGRFTISRENAKNTLYLEMSSLRSEDSAIYYCVREDYGNNGAMDYWGQGTSVTVSS
VL: DVLMTQTPLSLPVSLGDQASISCRSSQSIVHSNGNTYLEWYLQKPGQSPKLLIYKVSNRFSGVPDRFSGSGSGTDFTLKISRVEAEDLGVYYCFQGSHVPPTFGGGTKLEIK
notes: It was detected with anti-mouse IgG, so it is a mouse antibody

Molecular target: T1, mouse TREML1 ECD
Assay: solid phase binding assay (ELISA), antigen coated
Procedure: (§1) To investigate the TREML1/I-domain of CD11 b interaction, 5 μg/ml of recombinant I-domain of CD11 b (SEQ ID: 1) and BSA (negative control) proteins were coated separately on 96 well plates and incubated overnight at 4° C. Plates were added the blocking buffer (2% BSA in PBS) to avoid the nonspecific binding for 2 hours (hrs) at room temperature. A serial diluted TREML1 ECD was added and allowed to incubate at room temperature for 2 hrs. 1ug/ml of anti-TREML1 antibody (MAB2394, R&D systems) was added for 1 hr. Next, the secondary antibody with HRP labeling, anti-Rat IgG-HRP, was added to the plate and incubated for 30 minutes at room temperature. Plates were washed thrice with 0.05% tween 20 PBS buffer (PBST) between each step. Finally, TMB substrate was added and incubated for 10-15 min to detect HRP labeling antibody. After that, a stop solution of 1N HCL was added to stop the reaction. Absorbance at OD450/540 nm was measured by a microplate reader. To measure the half-maximal saturation binding of anti-TREML1 antibodies to TREML1, 5 μg/ml of human TREML1 ECD (SEQ ID: 2) or mouse TREML1 ECD (SEQ ID: 3) were coated on 96 well plates and incubated overnight at 4° C. Plates were added the blocking buffer (2% BSA in PBS) to avoid the nonspecific binding for 2 hr at room temperature. A serial diluted anti-TREML1 antibody was added and allowed to incubate at room temperature for 2 hr. Next, the secondary antibody with HRP labeling, anti-mouse IgG-HRP, was added to the plate and incubated for 30 minutes at room temperature. Plates were washed three times with 0.05% tween20 PBS buffer (PBST) between each step. Finally, TMB substrate was added and incubated for 10-15 min to detect HRP labeling antibody. After that, a stop solution of 1N HCL was added to stop the reaction. Absorbance at OD450/540 nm was measured by a microplate reader.

Row | EC50 | Binder
1 | 33.4 nM | B1
2 | 24.9 nM | B2
3 | 0.82 nM | B3
4 | 0.94 nM | B4
5 | 2.48 nM | B5
6 | 0.4 nM | B6

Molecular target: T2, human TREML1 ECD
Assay: solid phase binding assay (ELISA), antigen coated
Procedure: as §1

Row | EC50 | Binder
7 | 0.25 nM | B1
8 | 0.31 nM | B2
9 | 0.27 nM | B3
10 | 0.18 nM | B4
11 | 0.3 nM | B5
12 | 0.32 nM | B6
